Source: the DeepSol protein solubility set

assay: soluble on expression in E. coli; label from the status in PepcDB or PDB records

| Sequence | soluble on expression in E. coli |
| --- | --- |
| MSLYGKRLVVFAPLYVSNYCVNNCTYCGYKHCNDELKRKKLNKEQLIEEVKVLESLGHKRIALEAGEDPVNAPLDYILDCIKSIYSIKFDNGSIRRINVNIAATSVEDYKRLKDAEIGTYILFQETYHKPTYERLHVSGPKHNYNYHTTAMHRAREAGIDDIGMGVLYGLYDYKYETLAMLMHAMDLEETTGVGPHTLSVPRIRPAENVSLENYPYLVDDEDFKKIVAILRLAVPYAGLILSTREEPGLRDEIIALGVSQVSTGSCTGVGGYSESYIDPEEKPQFEVGDHRSPVEMIESLMEAGYIPSYCTACYREGRTGERFMDIVKSGELYKICEANALITLKEFIDDYGTDRTREIGDKLIKKSIDEIDNESFRKSVEEKINKISNGTRDLRFEGHHHHHH | not soluble |
| MKNSDLYNGTLRTSFVPGSTLEAGIIFRATIPNGEFYEKEAGLSYYWLYILNGTVSFQRVENGEISNENKKYFPYGTSSAYEAKILLDDGDIYCYLNNRLVFHYTDENPLQGHQYGLKSEGSNLIVTEFATSSLEAPQHNEYLIFGHSYTDFWKTYKQDFHKYQDIYNIGIGGAITSDWCSEGYQKEVIAYQPKYGIYWNGINDINRNIAPKTIGDNVRRMAMEIKAAVPGFHLVLIGVCRCPIDSGRRSDIASTNNYYKQIASDLDYVTYIDTELMYCDSNGNEIANYFTDGLHPTHDAYIMCANAIMNTIK | soluble |
| MSLTQTAFRSQLLTFNGDPAQSSQAAIYETDGLLIVDDGKVVAAGPYAQLAATLARDAIVHELRDKLIVPGFIDTHIHYPQTDMIASPAPGLLPWLDKYTFPTERQFGDPEHAREVADFFVDELLACGTTSALVYCTVHKQSADALFAASDARDLRMIAGKVLMDRNCPEFLRDTAQSGYDDSAELIDRWHGKGRQMYALTPRFAPTSTEAQLEACGELARRHPDVFVQSHVAENVDEVKWVGELFPGHRSYLDIYDRYGLLRPRAVYGHCIHLDDEDRRRMAETRTVVAHCPTSNFFLGSGLFDFDKAGEYDVPVTLATDVGGGTSFSMLQTMNEAHKVARLSGHHLTATRMFWLATAGAAQALDLADTVGTLAPRTEADFVVLDPQATPLLARRTKRADSLEELLFAFALLGDDRAVYRTYAAGQLVHERGAAPRPAAEGHHHHHH | soluble |
| MSEPPKKPFACAICRNKSSGCHYGVLSCDACKMFFKRTYLMEKYYTCRRQESCYNMDGGNRKCKACRFKKCLEVGMNPELFSRSESQIISTNIPTQLITQDHRNAEFLQKLKILDKTRHEVFKIIDTYENPSFVDLVRQESRLSCYLRPKNISWENTERKLKPWGSLGMLLAVETIKSLDFYPKLLLSDRILLLETVTLKSFHLSVAFDSFSQKKEKILAPDGSEMFPDSLNKMDFCKDLIMRLLTTPVKPLIAMKLTETEYLLLGIIVICNPEIDGLSPSGKAIITAFLQKTINVLLQFCLINNPRSAPSRLLEIISINQILNRQFHASYKLFDALRKQWDPTMSFQKVLVESCKTRGYDLS | not soluble |
| EPTNAPAALSRRFSVAPMMDWTDRHCRFFLRQLSRHTLLYTEMVTTGALLHGDRQRFLRYDECEHPLALQLGGSVPAELAACARLAEEAGYDEVNLNVGCPSDRVQHNMIGACLMGHPALVADCVKAMLDAVEIAVTVKHRIGINGRDSYAELCDFVGQVREAGCRSFTVHARIAILEGLSPKENREVPPLRYEVAAQLKKDFPDLEIVLNGGIKTLEACREHLQTFDGVMLGREAYHNPYLLAAVDSQLFGSEAPPLSRSEALLRLRPYIERHQAEGGAMHHVTRHILGLAQGFPGSRRFRQLLSVDVHKAADPLRVFDQA | not soluble |
| MENPDSAFLLFRNAPRLPLATMHTPLCGDSHQPDFAFRKPARDALLRPWNGRNHRCGLQDGREICQGQLPAHQKSYWSDCAALPRLFRAYGGAVVRGFLIVGNKAFTQPFSLNDLPGAGRMDVLCRCTSQALFISHGIRRDVEVYLLLLGPPSPPKSILIKGDEVRRMSPDERNVAGHIKKALAVECGKSWKKVHSGVYVSRKGLEELIEELSEKYSIIYLKEDGVDISNAQLPPNPLFVIGDHEGLTEEQEKVVERYAALKLSLSPLSLLAEQCVVIAHHHLDRLQF | not soluble |
| AQKPWEKDAWEIPRESLKLEKKLGAGQFGEVWMATYNKHTKVAVKTMKPGSMSVEAFLAEANVMKTLQHDKLVKLHAVVTKEPIYIITEFMAKGSLLDFLKSDEGSKQPLPKLIDFSAQIAEGMAFIEQRNYIHRDLRAANILVSASLVCKIADFGLARVIEDNEYTAREGAKFPIKWTAPEAINFGSFTIKSDVWSFGILLMEIVTYGRIPYPGMSNPEVIRALERGYRMPRPENCPEELYNIMMRCWKNRPEERPTFEYIQSVLDDFE | soluble |
| SLPYRGTLVMLMNEEVNKIITLCGKDWAKIGVEFIFLGGKQECENCKIKKTCLKLKEGAKYKIVGLRDGAVQECPLHDEGVVAVEVVELPIIALVDSKIAVEGAKIHYEQRKCDVYDCSMYSLCHPIELNNGETVIVEKVIGDAPEQCRKGHSVIVAELRRAEE | soluble |
| MLTLNYYVEITATPQRVWRVLTDAELYKRWAQAFSPQSQFEGEWEEGSDITFFDPDMGGTRAVIDSVQPLHRLEFHHVAIFNPDNRQQLDADIAAKWIGSREIYQIDTEDERLLLNITIHTHSDFVSMFNNGWEKALPLIKSICEETDSQLEHHHHHH | soluble |
| MKHVPIRMCVACRRRRPKGELLRILVTEEGFVIDPSGKRPGRGAYVCPDSPECRSEKRLRRFAGAKARALAEALAAYLGGEDGQGKDLPAG | soluble |
| MFTESPSRAISSYQRVGVESGVVSADPHKLILMLFEGARQALDCSLLYIQQNRIAAKGEMISKAIMIIDHGLKASLDKTAGGELANRLEQLYDYMTARLLTANLQNDAVIIEEISCLLGELHEAWASIGNQPAGKTDVQTATRNTIEDTAGTGAMA | not soluble |
| MGSDKIHHHHHHMIGAWCFLDHAGPVTFPAGNGLDVGPHPHIGLQTFTWMIEGTMMHTDSLGSKQLIRPKQVNLMTAGHGISHTEVAPDTETQMHAAQLWIALPDHKRNMDPKFEHYPDLPVVEKDGLEFTVLVGEYLETTSPVVVHTPLVGVDLIATQDTKTRIPLNPEFEYGFMALDGVAHVNGHELTADNMVVLDTGLNEIEIEVKKGNRVLLIGGEPFETPILLWWNFVARTMDDLKEAREQWVNHDVRFGEIPDYVGARLEAPVLPDQMRASK | not soluble |
| MNEKQKLESGQVHPSDKKSEKDYSKYFEAVYIPPSLKDAKKRGKEAVTYHNDFKISEQFKGLGDGRKFYIRTYGCQMNEHDTEVMAGIFMALGYEATNSVDDANVILLNTCAIRENAENKVFGELGHLKALKKNNPDLILGVCGCMSQEESVVNRILKKHPFVDMIFGTHNIHRLPELLSEAYLSKEMVVEVWSKEGDVIENLPKVRNGKIKGWVNIMYGCDKFCTYCIVPYTRGKERSRRPEDIIQEVRRLASEGYKEITLLGQNVNAYGKDFEDMTYGLGDLMDELRKIDIPRIRFTTSHPRDFDDRLIEVLAKGGNLLDHIHLPVQSGSSEVLKLMARKYDRERYMELVRKIKEAMPNASLTTDIIVGFPNETDEQFEETLSLYREVEFDSAYTFIYSPREGTPAAKMKDNVPMRVKKERLQRLNALVNEISAKKMKEYEGKVVEVLVEGESKNNPDILAGYTEKSKLVNFKGPKEAIGKIVRVKIQQAKTWSLDGEMVGEAIEVKLEHHHHHH | soluble |
| NVAGEEAVREYKKGDEISAVVLAVDAERERISLGIKQMENDPFNAYVADNKKGTLVNATVTAVDAKGATVEIAEGVEGYIRASEVSRDRVEDASLILSAGDVVEAKFTGVDRKNRVINLSIKAKDEAEEQEAMASINKQDEAAFGNAMADAFKAAKGE | not soluble |
| MAYRDRGMQKWQGMILSEHTEQLEQAKRKLSWLPQQSEECLVEILSYAVTKQHAITIQRLTEDENGYPLPFVVGRIVGVEDDRIYMRDMAGEITVLTFDDINHISEGTIEKWYR | not soluble |
| MGHHHHHHSHMVPGSEGPARAGSVVADVVFVIEGTANLGPYFEGLRKHYLLPAIEYFNGGPPAETDFGGDYGGTQYSLVVFNTVDCAPESYVQCHAPTSSAYEFVTWLDGIKFMGGGGESCSLIAEGLSTALQLFDDFKKMREQIGQTHRVCLLICNSPPYLLPAVESTTYSGCTTENLVQQIGERGIHFSIVSPRKLPAL | not soluble |
| MFFSHETILLICYNMLTLSKKISRIASEMIMKTKLIVVAGPTAVGKTALGIELAERFNGEIISGDSQQVYRQLNIGTAKATPEEQAAAVHHLIDVRDVDESYSAYDFVTEAQAAITDIVSRGKLPIIVGGTGLYLQSLLEGYHLGGKVDQNQVLAYRSELEQLSDQQLFEKIDSLGIEIKEINRRRAIRALELYRFSDNLENTETCYEPFIIGLDDERSLIYDRINTRVDKMVELGLLEEAKWLYDNFPEAQSARGIGYKELFPYFSGEQTLDEALEKLKQNTRRFAKRQLTWFRNRMTVSFYQISSPEYPENVIQDLAIFLNEEEGEKLEHHHHHH | soluble |
| MAGDPMKVAFITLGCRVNSYESEAMAEKFIKSGWEIVDNDEKADAYVINTCTVTNMGDRKSRQMISRARKANKDAVIAAVGCYSQVEPEKVAEIEGVDIVLGTKNKGDIIHYVNKFIEERNQIVNVKDVFTDKKFEDLNIDEYQDKTRAFLKIQDGCNRFCSYCLIPYARGGVCSKNPEKVIGEIKRLAEHGFKEIILSGIHIASYGDDLKGDWNLISIIEKAEQIDGIERIRIGSIEPRFFDEDTISKIKNMKKMCPHFHLSLQSGCTETLERMNRKYTAEEYKEIVYKLRENISDVSITTDVIVGFPGETDEEFEKTYDFLKEIELAKMHVFKYSPREGTKAAAMKNQINGNVKDKRSAELIELDKINEKKFMSKFLDREMDVLFEKKLEENEDLYEGYTPNYIKVVVKSSEDISRKILKVKLTEIQDEHLLGELILYKLEHHHHHH | soluble |
| MAHHHHHHMKLFLTVVERHNSTNSSDVTPTDDVALFDPGVWSRTATSEMARRNVSASYVAQQVYRHAALTQLAKVALSSAVCFRYGPRPPPHLDSFLFHKRCRPTGHGRCGTPPAAAAPPVCAPSPLISSSSSSFSVNMAATSPGTGQQRSTAAGASDSATEYDSLLALWLRELLSGTDSSVTVTALLLFVEGTAIDMATGSKVHTPLNIGSGTARQLRTHEDAMAFLHACESTLHHSAAEFPRCPYHVCVAVLVGTHGGSHGKNPVIFLDVAAAAPESAGAHQEVRLREQVALFGRQLGADATTATPHARQRTRKAEDEQWLSLLQSCQLSRASLVGLVYVACEAGHDPFGHSRVEGTDCDPFTLASVLRQRALLEAVNNGVLHPQLRKLSRARNRATARAVKLPASGATTRSRAPASPLKGRPSRGRQRPQQHSPKLPYLARDSVPPRRTQEHSIVFYGVSRCGRSADLLARIEEEEHHARVALSSAEQRAWNLAELRWILRAHPPGKSIDAMLRRFAHNVDGVSRPEQQHPHSVPPRFLPPPLNVAQLATAISRPSTTATRRSSFASATRTPESTSPGGTVRTRVTASMLPTSPSRLALTSTFFTRRITTPLFFREAGSPPQNQDDPRAHSASSHVAVRGHNATELERRRLKSGATFSLATDSPNARACTTARRLSAIETALLARAHSSSQRSLPSPSPCTGEVERLYPLVRAFHVEMCEQDALMAEELMMRSCIEHKEKNCRKTLSVARAESVRRLSVWWPSETGTQPQREPQVPDSPRWRPAKPLPLRIFFQQ | not soluble |
| MGSDKIHHHHHHMPFDQGGIKMKPLLQTVDLKKYFPQGKRILKAVDGISIEIKEGETLGLVGESGCGKSTLGRTILKLLRPDGGKIFFEGKDITNLNDKEMKPYRKKMQIIFQDPLGSLNPQMTVGRIIEDPLIIHKIGTKKERRKRVEELLDMVGIGREFINSFPHEFSGGQQQRIGIARALALNPKFIVCDEPVSALDVSIQAQIIDLLEEIQQKMGISYLFIAHNLAVVEHISHKVAVMYLGKIVEYGDVDKIFLNPIHPYTRALLKSVPKIPWDGQKQRFYSLKGELPSPIDLPKGCRFQTRCTEKKAICFEKEPELTEVEKNHFVSCHLVRSYRG | not soluble |
